For the assay, the target named is mesothelin (UniProt Q13421). The assay is described as follows: cell-based or functional assay.

The values that follow come from patent publication US7521054.

Sequence of UniProt Q13421 (Q13421 other isoform, or with tags, fused parts or gaps limits assumed): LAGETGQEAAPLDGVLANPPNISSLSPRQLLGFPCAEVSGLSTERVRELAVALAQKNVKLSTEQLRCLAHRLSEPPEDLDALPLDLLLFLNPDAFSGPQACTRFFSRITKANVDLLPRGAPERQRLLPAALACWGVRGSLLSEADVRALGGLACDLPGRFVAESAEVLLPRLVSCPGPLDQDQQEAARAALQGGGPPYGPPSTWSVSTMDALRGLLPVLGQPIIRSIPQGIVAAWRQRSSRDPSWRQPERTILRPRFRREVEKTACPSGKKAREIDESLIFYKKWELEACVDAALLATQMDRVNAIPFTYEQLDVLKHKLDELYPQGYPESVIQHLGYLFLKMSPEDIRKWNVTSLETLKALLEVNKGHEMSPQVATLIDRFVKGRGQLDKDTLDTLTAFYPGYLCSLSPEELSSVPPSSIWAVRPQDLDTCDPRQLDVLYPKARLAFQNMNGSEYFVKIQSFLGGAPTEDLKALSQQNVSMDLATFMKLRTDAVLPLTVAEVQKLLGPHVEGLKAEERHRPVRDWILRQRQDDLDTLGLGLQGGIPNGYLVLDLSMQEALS

Substance “SS1(dsFv)-PE38 (from UniProt P11439 278-389; P11439 406-638)” had an IC50 (NG/ML), cytotoxic activity on A431-K5 cells of 0.63 ng/mL.
